Measurements published in paper PMC8630017, “Structural insights into proteolytic activation of the human Dispatched1 transporter for Hedgehog morphogen release” (Nature Communications, 2021).
Values belong to the molecule of their own block, whether it stands above or below them.

Legend:
[1] = biological target: wild-type human Dispatched1 (hDisp1), N-terminal Flag tag and C-terminal Twin-Strep tag (human) (UniProt Q96F81)
[2] = biological target: the molecule itself; test: SEC; purified hDisp1^NNN on Superose 6 10/300 GL in 25 mM Tris pH 8.0, 150 mM NaCl, 0.02% GDN

Scube2-dependent Shh-NL release from HEK293T cells after 6 h, against WT Shh-NL (fold reduction) [1]: > 2
Molecule: NanoLuc-tagged human Shh, mutant L56K (from UniProt Q15465 24-462) (ligand)

Scube2-dependent Shh-NL release from HEK293T cells after 6 h, against WT Shh-NL (fold reduction) [1]: > 2
Molecule: NanoLuc-tagged human Shh, mutant K74A (from UniProt Q15465 24-462) (ligand)

Scube2-dependent Shh-NL release from HEK293T cells after 6 h, against WT Shh-NL (surface localisation of this mutant reduced just below 50%) (fold reduction) [1]: > 2
Molecule: NanoLuc-tagged human Shh, mutant N81A (from UniProt Q15465 24-462) (ligand)

Scube2-dependent Shh-NL release from HEK293T cells after 6 h, against WT Shh-NL (fold reduction) [1]: > 2
Molecule: NanoLuc-tagged human Shh, mutant E71A (from UniProt Q15465 24-462) (ligand)

The remaining lines, values behind:

Molecule: NanoLuc-tagged human Shh, mutant V51E (from UniProt Q15465 24-462) (ligand)
Scube2-dependent Shh-NL release from HEK293T cells after 6 h, against WT Shh-NL (fold reduction) [1]: > 2

Molecule: NanoLuc-tagged human Shh, mutant N50A (from UniProt Q15465 24-462) (ligand)
Scube2-dependent Shh-NL release from HEK293T cells after 6 h, against WT Shh-NL (fold reduction) [1]: > 2

Molecule: NanoLuc-tagged human Shh, mutant L56A (from UniProt Q15465 24-462) (ligand)
Scube2-dependent Shh-NL release from HEK293T cells after 6 h, against WT Shh-NL (fold reduction) [1]: > 2

Molecule: NanoLuc-tagged human Shh, mutant Y80A (from UniProt Q15465 24-462) (ligand)
Scube2-dependent Shh-NL release from HEK293T cells after 6 h, against WT Shh-NL (fold reduction) [1]: > 2

B1: hDisp1^NNN (D572N, D573N, D1051N), N-terminal Flag tag and C-terminal His10 tag, purified (natural protein, human, UniProt Q96F81 1-1524, looked up)
chain: MAMSNGNNDFVVLSNSSIATSAANPSPLTPCDGDHAAQQLTPKEATRTKVSPNGCLQLNGTVKSSFLPLDNQRMPQMLPQCCHPCPYHHPLTSHSSHQECHPEAGPAAPSALASCCMQPHSEYSASLCPNHSPVYQTTCCLQPSPSFCLHHPWPDHFQHQPVQQHIANIRPSRPFKLPKSYAALIADWPVVVLGMCTMFIVVCALVGVLVPELPDFSDPLLGFEPRGTAIGQRLVTWNNMVKNTGYKATLANYPFKYADEQAKSHRDDRWSDDHYEREKREVDWNFHKDSFFCDVPSDRYSRVVFTSSGGETLWNLPAIKSMCNVDNSRIRSHPQFGDLCQRTTAASCCPSWTLGNYIAILNNRSSCQKIVERDVSHTLKLLRTCAKHYQNGTLGPDCWDMAARRKDQLKCTNVPRKCTKYNAVYQILHYLVDKDFMTPKTADYATPALKYSMLFSPTEKGESMMNIYLDNFENWNSSDGVTTITGIEFGIKHSLFQDYLLMDTVYPAIAIVIVLLVMCVYTKSMFITLMTMFAIISSLIVSYFLYRVVFHFEFFPFMNLTALIILVGIGANNAFVLCDVWNYTKFDKPHAETSETVSITLQHAALSMFVTSFTTAAAFYANYVSNITAIRCFGVYAGTAILVNYVLMVTWLPAVVVLHERYLLNIFTCFKKPQQQIYDNKSCWTVACQKCHKVLFAISEASRIFFEKVLPCIVIKFRYLWLFWFLALTVGGAYIVCINPKMKLPSLELSEFQVFRSSHPFERYDAEYKKLFMFERVHHGEELHMPITVIWGVSPEDNGNPLNPKSKGKLTLDSSFNIASPASQAWILHFCQKLRNQTFFYQTDEQDFTSCFIETFKQWMENQDCDEPALYPCCSHWSFPYKQEIFELCIKRAIMELERSTGYHLDSKTPGPRFDINDTIRAVVLEFQSTYLFTLAYEKMHQFYKEVDSWISSELSSAPEGLSNGWFVSNLEFYDLQDSLSDGTLIAMGLSVAVAFSVMLLTTWNIIISLYAIISIAGTIFVTVGSLVLLGWELNVLESVTISVAVGLSVNFAVHYGVAYRLAPDPDREGKVIFSLSRVGSAMAMAALTTFVAGAMMMPSTVLAYTQLGTFMMLIMCISWAFATFFFQCMCRCLGPQGTCGQIPLPKKLQCSAFSHALSTSPSDKGQSKTHTINAYHLDPRGPKSELEHEFYELEPLASHSCTAPEKTTYEETHICSEFFNSQAKNLGMPVHAAYNSELSKSTESDAGSALLQPPLEQHTVCHFFSLNQRCSCPDAYKHLNYGPHSCQQMGDCLCHQCSPTTSSFVQIQNGVAPLKATHQAVEGFVHPITHIHHCPCLQGRVKPAGMQNSLPRNFFLHPVQHIQAQEKIGKTNVHSLQRSIEEHLPKMAEPSSFVCRSTGSLLKTCCDPENKQRELCKNRDVSNLESSGGTENKAGGKVELSLSQTDASVNSEHFNQNEPKVLFNHLMGEAGCRSCPNNSQSCGRIVRVKCNSVDCQMPNMEANVPAVLTHSELSGESLLIKTL
notes: human Dispatched1, M1 to L1524, triple mutant in TM4 and TM10; The purified protein is a mix of uncleaved (175 kDa) and Furin-cleaved species (C145 with the His tag; N35 and N30 with the Flag tag); source: HEK293F, transiently transfected, purified (anti-Flag resin, Ni-NTA, SEC on Superose 6) in GDN; not shown: Flag, N-terminal, kept; His10, C-terminal, kept
binding result [2]: binds
